Publication PMC8630535

How the values were obtained:
Details in all cases: […]) or PBS pH 8.0, 1 mM TCEP ([…]
[1] = test system: T1, PaaR2 (Escherichia coli O157:H7 EDL933 (CP-933P cryptic prophage)), ORF:dc76e4f2; test: EMSA
T1 sequence: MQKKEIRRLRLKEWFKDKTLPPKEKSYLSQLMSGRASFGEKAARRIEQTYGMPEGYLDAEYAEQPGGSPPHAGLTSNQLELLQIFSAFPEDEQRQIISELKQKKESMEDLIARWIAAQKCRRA

[2] = test system: T2, YdaS (Escherichia coli O157:H7 EDL933 (CP-933P cryptic prophage)), ORF:56fdd3d8; test: EMSA
T2 sequence: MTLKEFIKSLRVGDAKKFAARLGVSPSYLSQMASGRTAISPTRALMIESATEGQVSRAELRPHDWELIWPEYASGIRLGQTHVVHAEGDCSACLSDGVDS

[3] = test system: T1, PaaR2 (Escherichia coli O157:H7 EDL933 (CP-933P cryptic prophage)), ORF:dc76e4f2; test: DNase I footprinting
[4] = test system: T2, YdaS (Escherichia coli O157:H7 EDL933 (CP-933P cryptic prophage)), ORF:56fdd3d8; test: DNase I footprinting
[5] = test system: PaaR2 (Escherichia coli O157:H7 EDL933 (CP-933P cryptic prophage)); test: EMSA
[6] = test system: YdaS (Escherichia coli O157:H7 EDL933 (CP-933P cryptic prophage)); test: EMSA

Row | Substance | binding [1] | binding [2] | also measured
1 | ACCTTCCTCGGTTTAGTGTTTTTTTGCGAGTTTAGTGTTTAATAAACCATTAAGTCAAGTATTTGCTTGTTTAGTGATTACTAAAGATAATTACCAC (double strand) | > 1 µM | > 1 µM | 
2 | GCTTTTGCGCAGAAATTTCGCGATATGGCAGGACAAGACGTAAAATTGACAGCAATTTTATTCATATAAAGAATGAATCGCAGTCAAGGTATTCATC (double strand) [random intergenic region (Neg)] | no binding | no binding | 
3 | TCTTTAAACCACTCCTTGAGACGTAAACGGCGAATTTCTTTTTTTTGCATGTGGTAATTATCTTTAGTAATCACTAAACAAGCAAATACTTGACTTAATGGTTTATTAAACACTAAACTCGCAAAAAAACACTAAACCGAGGAAGGTATGACATTAAAAGAGTTTATTAAATCATTAAGGGTTGGTGAT (double strand) [footprint fragment, paaR2-ydaS promoter/operator region] |  |  | binding [3]: binds; binding [4]: binds
4 | full-length promoter/operator region, paaR2-ydaS intergenic region (EMSA) |  |  | binding [5]: > 1 µM; binding [6]: > 1 µM
